From the DeepSol protein solubility set

Experiment: soluble on expression in E. coli; label from the status in PepcDB or PDB records

Sequence	soluble on expression in E. coli
MGSDKIHHHHHHMKVIIEADGGSRGNPGIAGSGTLIYNADRSQVLKEYSYVVGKATNNVAEYHGLLNGLRGAAELGATEVSVRMDSKLVVEQMSGRWKIKHPDMKELALECKKVASSIGSVSYEWIPRSENSHADALANKAMDALAEGAAVGFLELEEPAAKTDSEEKVVETATSPAVWNGATTQATRFVLLRHGQTAMSAARQYSGRSNPELTSVGLEQARRAAAFIGRRGGIDAIVASPLQRCQQTAHEVSEQLGGMPVRTIDGLIEMDFGQWDGLSFSQAHEADPELHSAWLDDSRTAPPGGESLQQVHRRVKKVREELERKYAGKTIVVVSHVTPIKSILRQALDASASMFHRMHLDLASISVAEFYSDGPTCVRSVNDTHYLYG	not soluble
MGSDKIHHHHHHMSNSDPIERFFRSGLKLPHLRILVSLADLGQVTRVAAAFHVTQPAISKQIAEIEDALGVAVVNRVGNALELTGIGQVIVSCGREVLRHIELAKRDVSALASGTAGHVRVGAVVTIPEPLIANSVQLFIRRAPSASLSFAESTLDRLIRMMDDGELDIALGRNRIAGANSAQSTLKQEILHREPFVFVAGAHHPLGDPDRPTTWADLRGCRWITPMHGSPAYATLVEALAVHDLTPDPGAVESSSLALNVALIRSGDFVSILPMSVARPQVMRGNMRVLPLPPLQPLGEIVAYWRLGSTTPAAQLFNACLKEVSSDLLGERIEAG	not soluble
MTCFKIRLSKQPLKGRTMNKPFITQAQLALYKYQPSSKYYGKTMAYTFASELLDYSKVNKFIIHEEIQCFLNRRISNNIWKIYFSDESVAYIKILELQDDYSRGIEIKTFDFNPNVGDVFG	not soluble
MLLFLTIILILVGGCTPKTKEVVLKNRNYVVIKEGKPALSEEDIIKLSRSLYVNKVNRPEVLRALKSLLTKRESLKYAFYRMKLYENIIVPILRSYGLPEEFKYLPIVESMYNPFAVSRSGAAGIWQLMPQTARRYGLIVRKDYDERFDVVKSTHAAAKYLRDLLEEFKNLELVLAAYNCGENCIRRNVNYNFWKERRKLPKETQNYVPLFLATLLIAQNPEYYGIHLYEPSREIAIVKVGIPMSVEDFLIMYSMNESRFRDLNPHIRGRKIPKNANVYVEERKLVKGEYLLRARGREE	not soluble
MKEFSIMIQGTISSWTEDTMSLLTVEKLGHTFGDRTLFKDVSMRLLAGEHVGLVGANGVGKSTFMNIITGQLIHDQGRVEWTPGTHYGYLDQHTVLTPGRTIRDVLADAFLPLFEKEKALNEVTEKMGTATPEELEELLEQMAEIQDALEAGGFYLLYMKIEEAARGLGIDAIGLDRDVSALSGGQRTKVLLAKLLLEQPEVLLLDEPTNYLDVEHIHWLTNYLKEYPHAFLLISHDTEFMNKCVDVIFHLEFTKMTRYTATYEKFLELAEINKNQHINAYEKQREFIKKQEDFIAKNKARYSTTGRAKSRQKQLDRMELIDRPETAIKPEFSFKESRASSRFVFEGENVEIGYTHPLLPKLSMTIERGEKIAIVGCNGVGKSTLLKTILGKIKPLSGKTSLGDFLEPAYFEQEVKADNITPIDDVWNTFPGLDQHQIRAMLAKCGLKNEHISRPLSQLSGGEQAKVRLCKLMGEESNWLLFDEPTNHLDVTAKAELKKAMKAYKGTILLVCHEPDFYEDWITKVWDVEEWSQNSK	not soluble
MGSDKIHHHHHHQRDLWNIFKLWGWTMLCCDFLAHHGTDCWTYHYSEKPMNWQRARRFCRDNYTDLVAIQNKAEIEYLEKTLPFSRSYYWIGIRKIGGIWTWVGTNKSLTEEAENWGDGEPNNKKNKEDCVEIYIKRNKDAGKWNDDACHKLKAALCYTASCQPWSCSGHGECVEIINNYTCNCDVGYYGPQCQFVIQCEPLEAPELGTMDCTHPLGNFSFSSQCAFSCSEGTNLTGIEETTCGPFGNWSSPEPTCQVIQCEPLSAPDLGIMNCSHPLASFSFTSACTFICSEGTELIGKKKTICESSGIWSNPSPICQKLDKSFSMIKEGDYN	not soluble
SNAMSTHVTFDYSKALSFIGEHEITYLRDAVKVTHHAIHEKTGAGNDFLGWVDLPLQYDKEEFARIQKCAEKIKNDSDILLVVGIGGSYLGARAAIEMLNHSFYNTLSKEQRKTPQVLFVGQNISSTYMKDLMDVLEGKDFSINVISKSGTTTEPALAFRIFRKLLEEKYGKEEARKRIYATTDKARGALKTLADNEGYETFVIPDDVGGRFSVLTPVGLLPIAVSGLNIEEMMKGAAAGRDDFGTSELEENPAYQYAVVRNALYNKGKTIEMLINYEPALQYFAEWWKQLFGESEGKDQKGIFPSSANFSTDLHSLGQYVQEGRRDLFETVLKVGKSTHELTIESEENDLDGLNYLAGETVDFVNTKAYEGTLLAHSDGGVPNLIVNIPELNEYTFGYLVYFFEKACAMSGYLLGVNPFDQPGVEAYKKNMFALLGKPGFEELKAELEERLK	soluble
MAHHHHHHMGSLSSSSSSSAATGAGAAASQTDAQEVTPVDSLWSPHDVCEAAVDYVLRHVNTVQYMIQSIEEITGKPFLRDRIKCLPAVPRDEASRNPTMGLTPDRVFAGYMWRSARSDCQAKDVVLLEDHIARLFNTKHATAFLKKDKGVNERAASPPTTSDAAATAASSLSTTATQSQLQRLLAGSQLPVLEQVERNIRHELVHAFDDARGAIESSDCVHQACSEIRAARLSGDCFVGQEMRKGRFNFFEGGQKCVRRRAVMAVDRNPVCRGFSERAVDTVFQKCYSDYEPFAAPIYALGSYGDSQFANGTLKL	not soluble
MIERVKGTRDFLPEDMAKRRWVFEKIREVFEAYGFKEILTPVMEYTKLFQLRSGEEVVKQLYAFKDKGGRDVSLRPDMTSSVARLYVNSFQMAPKPIKWYYIANMFRYEEPQSGRYREFWQAGVELIGSDKVEADAEVIALFVESYLSTGLRDFTVNIGDRILLDEFAGMLGVSDDIGLMRIIDKRDKLSQEEFINLLKEFGLGESEIEKVLELVEIKGRPDNVLPLAEELFKSKKAKEEISKLYKLTDLLEWYGVKDWIRIDLGIARGFDYYTSIVFEAISPNELGIGSIGGGGRYDNLIEIFGGKPTPATGFAIGIERLLPILEWKGLIPKPQTGPEVFVIPLKDMEKVAINIAVKLRREKIKTDIELSGRKLGKALDYANRVGAKLVIIVGKRDVERGVVTIRDMESGEQYNVSLNEIVDKVKNLLKR	soluble
MTILNHTLGFPRVGLRRELKKAQESYWAGNSTREELLAVGRELRARHWDQQKQAGIDLLPVGDFAWYDHVLTTSLLLGNVPARHQNKDGSVDIDTLFRIGRGRAPTGEPAAAAEMTKWFNTNYHYMVPEFVKGQQFKLTWTQLLDEVDEALALGHKVKPVLLGPITWLWLGKVKGEQFDRLSLLNDILPVYQQVLAELAKRGIEWVQIDEPALVLELPQAWLDAYKPAYDALQGQVKLLLTTYFEGVTPNLDTITALPVQGLHVDLVHGKDDVVELHKRLPSDWLLSAGLINGRNVWRADLTEKYVQIKDIVGKRDLWVASSCSLLHSPIDLSVETRLDAEVKSWFAFALQKCHELALLCDALNSGDTAALAEWSAPIQARRHSTRVHNPAVEKRLAAITAQDSQRANVYEVRAEAQRARFKLPAWPTTTIGSFPQTTEIRTLRLDFKKGNLDANNYRTGIAEHIRQAIVEQERLGLDVLVHGEAERNDMVEYFGEHLDGFVFTQNGWVQSYGSRCVKPPIVIGDVSRPAPITVEWAKYAQSMTDKPVKGMLTGPVTILCWSFPREDVSRETIAKQIALALRDEVADLEAAGIGIIQIDEPALREGLPLRRSDWDAYLQWGVEAFRINAAVAKDDTQIHTHMCYCEFNDIMDSIAALDADVITIETSRSDMELLESFEEFDYPNEIGPGVYDIHSPNVPSVEWIEALLKKAAKRIPAERLWVNPDCGLKTRGWPETRAALANMVQAAQNLRRG	not soluble
MSLPEKLPYLVELSPGRRNHFAYYNYHTYEDGSDSRDKPKLYRLQLSVTEVGTEKLDDNSIQLFGPGIQPHHCDLTNMDGVVTVTPRSMDAETYVEGQRISETTMLQSGMKVQFGASHVFKFVDPSQDHALAKRSVDGGLMVKGPRHKPGIVQETTFDLGGDIHSGTALPTSKSTTRLDSDRVSSASSTAERGMVKPMIRVEQQPDYRRQESRTQDASGPELILPASIEFRESSEDSFLSAIINYTNSSTVHFKLSPTYVLYMACRYVLSNQYRPDISPTERTHKVIAVVNKMVSMMEGVIQKQKNIAGALAFWMANASELLNFIKQDRDLSRITLDAQDVLAHLVQMAFKYLVHCLQSELNNYMPAFLDDPEENSLQRPKIDDVLHTLTGAMSLLRRCRVNAALTIQLFSQLFHFINMWLFNRLVTDPDSGLCSHYWGAIIRQQLGHIEAWAEKQGLELAADCHLSRIVQATTLLTMDKYAPDDIPNINSTCFKLNSLQLQALLQNYHCAPDEPFIPTDLIENVVTVAENTADELARSDGREVQLEEDPDLQLPFLLPEDGYSCDVVRNIPNGLQEFLDPLCQRGFCRLIPHTRSPGTWTIYFEGADYESHLLRENTELAQPLRKEPEIITVTLKKQNGMGLSIVAAKGAGQDKLGIYVKSVVKGGAADVDGRLAAGDQLLSVDGRSLVGLSQERAAELMTRTSSVVTLEVAKQGAIYHGLATLLNQPSPMMQREGHHHHHH	soluble
DLFFGWGRKKSGLKAMNLAKKYKAKFILLEDGFIRSLNLGVENSPSFSMVKDDIGIYYDATMPSKLENLLNTCEFKDEEIKQAKKAIELIKKYKISKYNNNLDIPDNYFQKDEKRVLIITQTANDASLEFGLAKDFKTLDMIKDAIKENPKSTIYIKIHPDVLSGKKQSDLDLNSLPKECILITENFNPIALLEFFDKVYTKTSGMGFEALMQECECICYGMPFYAGWGLTKDKLECKRRMQKRSLEEVFYAAYILYAEY	not soluble
MSDKKVFILSGARTPIGAYRGSFANFGAVELGTVAAKAAIERSGVAPEKIEEVIGGCVLPAGLGQNVTRQISLSAGLPVTTQAVTVNKVCSSSMKALVTAAVEIKAGYYDTILVVGTENMSQVPFYVPRGEIPFGGIQMTDGISKDGLEDIKEKGPMGLCAEKTVKDYGITREEQDAYAIESYKKASNAWSSEKFSEEVVPVSVKTSRSEVVITEDEEYKKLIESKVSSLKPVFVRDGTGTITPANASSLNDGAVATVVVGENALPQGAHPLAELVAFAEAGRAPIDFTVAPVDAVRLLLKKSGLQVSDIALWELNEAFAVTVLAFIKELNIEPSVVNVKGGAVAIGHPLGMSGLRIVNSLAYSLAPGQLGVAAICNGGGEATAVLIKKL	not soluble
MHSDELLVEILVEELPAQALLNEYKEMPKKLHALFNKRALEVGNIEIFYTPRRLCLLIKDFPLLTQETKEEFFGPPVKIACNHQDKTQGLNALGLGFYQKLGLKDHQYFQTAFKNNKEVLYHAKIHEKEPTKDLIMPIVLEFLEGLNFGKSMRWGNVEKSFIRPIHNICVLFNGEDFSGIEVKEYGFKTKQATKVHRQEGFDFIQVDSPKAYFEVLEKNHVILDPKKREAKILQEIKELETKHHIIVETDRDLLDEVVAITEYPSALLGEFDKAFLKLPSEIIITSMKENQRYFATFCQKSQEESPTLHNGFIVVSNAINKDKQKIILGNQKVLKARLSDAVFFYENDLKKPLDNAPLESVVFVQGLGTLKDKMERESIIAQYLTQKYISSLNMPLEKALELVKRAVQIAKADLLSEVVYEFSELQGIMGYYYALKQNENELVALSVKEQYLPASENAPLPSSVFSSIVALSLKLDSLFSLFSVGKIPSGSKDPFALRRLSFGLLKIIAHYGLEFDLKADLKNLFQKVGVYQSFDLEILEKFLLERFHNLIDCNPSIIRSVLNTNERDIVK	not soluble
MRGGPVNSHDVTDEQWEGLAQVVPLRGRDAWPSAVGHRSIPEAQTEARRRFVVLRVNIFADARDVAETLMRGIPVLLDLTSAETEVAKRVLDFSTGVVFGLASGMHRVDRNVFLLTPPGTEVQGLMEGVGVPGILEHHHHHH	not soluble
MRQATRKGLMTMAAATGVIAAAGGAAHADSGAHGTSSGSPGVLSGNTVQAPVHVPVNVCGNTVDVVGVLNPAMGNACANQGGGASGGHGGHGGHGGYGDSGGEGGSHGGSHAGGHATDSPGVGSGNHVEVPIDVPVNVCGNSIDVVGALNPTTGNDCGNGGGGDHSTPPGDHETPPGEPHNPGNPGNPDTPDKPSGPDDETPGDSTDGNRPGAQTVDQPRGDAALAETGSDLPLGLALPVGAGALLAGTVLYRKARASVLEHHHHHH	not soluble
